Laboratory results published in patent publication US20070105796.

Target: HSP27 (small heat shock protein 27), P04792
Sequence (P04792 whole entry): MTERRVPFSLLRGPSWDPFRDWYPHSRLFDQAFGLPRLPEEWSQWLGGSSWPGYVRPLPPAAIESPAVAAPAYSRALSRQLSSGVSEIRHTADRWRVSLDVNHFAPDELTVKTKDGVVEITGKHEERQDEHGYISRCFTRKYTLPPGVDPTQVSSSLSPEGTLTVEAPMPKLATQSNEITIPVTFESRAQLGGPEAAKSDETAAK

Row | Protein | kinase activity (immune-complex kinase assay, phosphorylation of HSP27) | kinase activity (phosphorylation of HSP27 with [gamma-32P]ATP, autoradiography)
1 | N-terminal HA-tagged inactive MAPKAPK3 (T201A/T313A) (protein) MDGETAEEQGGPVPPPVAPGGPGLGGAPGGRREPKKYAVTDDYQLSKQVLGLGVNGKVLECFHRRTGQKCALKLLYDSPKARQEVDHHWQASGGPHIVCILDVYENMHHGKRCLLIIMECMEGGELFSRIQERGDQAFTEREAAEIMRDIGTAIQFLHSHNIAHRDVKPENLLYTSKEKDAVLKLTDFGFAKETTQNALQAPCYTPYYVAPEVLGPEKYDKSCDMWSLGVIMYILLCGFPPFYSNTGQAISPGMKRRIRLGQYGFPNPEWSEVSEDAKQLIRLLLKTDPTERLTITQFMNHPWINQSMVVPQAPLHTARVLQEDKDHWDEVKEEMTSALATMRVDYDQVKIKDLKTSNNRLLNKRRKKQAGSSSASQGCNNQ | the kinase activity was observed only in an active MAPKAPK3 | 
2 | GST fusion active MAPKAPK3 (T201E/T313E) (protein) MDGETAEEQGGPVPPPVAPGGPGLGGAPGGRREPKKYAVTDDYQLSKQVLGLGVNGKVLECFHRRTGQKCALKLLYDSPKARQEVDHHWQASGGPHIVCILDVYENMHHGKRCLLIIMECMEGGELFSRIQERGDQAFTEREAAEIMRDIGTAIQFLHSHNIAHRDVKPENLLYTSKEKDAVLKLTDFGFAKETTQNALQEPCYTPYYVAPEVLGPEKYDKSCDMWSLGVIMYILLCGFPPFYSNTGQAISPGMKRRIRLGQYGFPNPEWSEVSEDAKQLIRLLLKTDPTERLTITQFMNHPWINQSMVVPQEPLHTARVLQEDKDHWDEVKEEMTSALATMRVDYDQVKIKDLKTSNNRLLNKRRKKQAGSSSASQGCNNQ |  | the kinase activity was observed only in an active MAPKAPK3
3 | GST fusion MAPKAPK3 (N-terminal GST fusion human MAPKAPK3) (protein) MDGETAEEQGGPVPPPVAPGGPGLGGAPGGRREPKKYAVTDDYQLSKQVLGLGVNGKVLECFHRRTGQKCALKLLYDSPKARQEVDHHWQASGGPHIVCILDVYENMHHGKRCLLIIMECMEGGELFSRIQERGDQAFTEREAAEIMRDIGTAIQFLHSHNIAHRDVKPENLLYTSKEKDAVLKLTDFGFAKETTQNALQTPCYTPYYVAPEVLGPEKYDKSCDMWSLGVIMYILLCGFPPFYSNTGQAISPGMKRRIRLGQYGFPNPEWSEVSEDAKQLIRLLLKTDPTERLTITQFMNHPWINQSMVVPQTPLHTARVLQEDKDHWDEVKEEMTSALATMRVDYDQVKIKDLKTSNNRLLNKRRKKQAGSSSASQGCNNQ |  | the kinase activity was observed only in an active MAPKAPK3
4 | GST fusion inactive MAPKAPK3 (T201A/T313A) (protein) MDGETAEEQGGPVPPPVAPGGPGLGGAPGGRREPKKYAVTDDYQLSKQVLGLGVNGKVLECFHRRTGQKCALKLLYDSPKARQEVDHHWQASGGPHIVCILDVYENMHHGKRCLLIIMECMEGGELFSRIQERGDQAFTEREAAEIMRDIGTAIQFLHSHNIAHRDVKPENLLYTSKEKDAVLKLTDFGFAKETTQNALQAPCYTPYYVAPEVLGPEKYDKSCDMWSLGVIMYILLCGFPPFYSNTGQAISPGMKRRIRLGQYGFPNPEWSEVSEDAKQLIRLLLKTDPTERLTITQFMNHPWINQSMVVPQAPLHTARVLQEDKDHWDEVKEEMTSALATMRVDYDQVKIKDLKTSNNRLLNKRRKKQAGSSSASQGCNNQ |  | the kinase activity was observed only in an active MAPKAPK3
5 | N-terminal HA-tagged active MAPKAPK3 (T201E/T313E) (protein) MDGETAEEQGGPVPPPVAPGGPGLGGAPGGRREPKKYAVTDDYQLSKQVLGLGVNGKVLECFHRRTGQKCALKLLYDSPKARQEVDHHWQASGGPHIVCILDVYENMHHGKRCLLIIMECMEGGELFSRIQERGDQAFTEREAAEIMRDIGTAIQFLHSHNIAHRDVKPENLLYTSKEKDAVLKLTDFGFAKETTQNALQEPCYTPYYVAPEVLGPEKYDKSCDMWSLGVIMYILLCGFPPFYSNTGQAISPGMKRRIRLGQYGFPNPEWSEVSEDAKQLIRLLLKTDPTERLTITQFMNHPWINQSMVVPQEPLHTARVLQEDKDHWDEVKEEMTSALATMRVDYDQVKIKDLKTSNNRLLNKRRKKQAGSSSASQGCNNQ | the kinase activity was observed only in an active MAPKAPK3 | 
6 | N-terminal HA-tagged MAPKAPK3 (protein) MDGETAEEQGGPVPPPVAPGGPGLGGAPGGRREPKKYAVTDDYQLSKQVLGLGVNGKVLECFHRRTGQKCALKLLYDSPKARQEVDHHWQASGGPHIVCILDVYENMHHGKRCLLIIMECMEGGELFSRIQERGDQAFTEREAAEIMRDIGTAIQFLHSHNIAHRDVKPENLLYTSKEKDAVLKLTDFGFAKETTQNALQTPCYTPYYVAPEVLGPEKYDKSCDMWSLGVIMYILLCGFPPFYSNTGQAISPGMKRRIRLGQYGFPNPEWSEVSEDAKQLIRLLLKTDPTERLTITQFMNHPWINQSMVVPQTPLHTARVLQEDKDHWDEVKEEMTSALATMRVDYDQVKIKDLKTSNNRLLNKRRKKQAGSSSASQGCNNQ | the kinase activity was observed only in an active MAPKAPK3 | 
